The source of these data is PMC7545097, “Mapping the native interaction surfaces of PREP1 with PBX1 by cross-linking mass-spectrometry and mutagenesis” (Scientific Reports, 2020).

The chains are these.
B1: PBX1_(1-430), wild-type recombinant [human] / PREP1_(1-436), wild-type recombinant (TR-FIA) [not stated] (parent complex)
chain 1: MDEQPRLMHSHAGVGMAGHPGLSQHLQDGAGGTEGEGGRKQDIGDILQQIMTITDQSLDEAQARKHALNCHRMKPALFNVLCEIKEKTVLSIRGAQEEEPTDPQLMRLDNMLLAEGVAGPEKGGGSAAAAAAAAASGGAGSDNSVEHSDYRAKLSQIRQIYHTELEKYEQACNEFTTHVMNLLREQSRTRPISPKEIERMVSIIHRKFSSIQMQLKQSTCEAVMILRSRFLDARRKRRNFNKQATEILNEYFYSHLSNPYPSEEAKEELAKKCGITVSQVSNWFGNKRIRYKKNIGKFQEEANIYAAKTAVTATNVSAHGSQANSPSTPNSAGSSSSFNMSNSGDLFMSVQSLNGDSYQGAQVGANVQSQVDTLRHVISQTGGYSDGLAASQMYSPQGISANGGWQDATTPSSVTSPTEGPGSVHSDTSN
chain 2: MMATQTLSIDSYQDGQQMQVVTELKTEQDPNCSEPDAEGVSPPPVESQTPMDVDKQAIYRHPLFPLLALLFEKCEQSTQGSEGTTSASFDVDIENFVRKQEKEGKPFFCEDPETDNLMVKAIQVLRIHLLELEKVNELCKDFCSRYIACLKTKMNSETLLSGEPGSPYSPVQSQQIQSAITGTISPQGIVVPASALQQGNVAMATVAGGTVYQPVTVVTPQGQVVTQTLSPGTIRIQNSQLQLQLNQDLSILHQDDGSSKNKRGVLPKHATNVMRSWLFQHIGHPYPTEDEKKQIAAQTNLTLLQVNNWFINARRRILQPMLDSSCSETPKTKKKTAQNRPVQRFWPDSIASGVAQPPPSELTMSEGAVVTITTPVNMNVDSLQSLSSDGATLAVQQVMMAGQSEDESVDSTEEDAGALAPAHISGLVLENSDSLQ

Variants of B1 are the subject of the test. The test can be described thus: TR-FIA; parent: 1; read off a plot.
Regarding chain 1 MDEQPRLMHSHAGVGMAGHPGLSQHLQDGAGGTEGEGGRKQDAGDILQQAMTITDQSLDEAQARKHALNCHRMKPALFNVLCEIKEKTVLSIRGAQEEEPTDPQLMRLDNMLLAEGVAGPEKGGGSAAAAAAAAASGGAGSDNSVEHSDYRAKLSQIRQIYHTELEKYEQACNEFTTHVMNLLREQSRTRPISPKEIERMVSIIHRKFSSIQMQLKQSTCEAVMILRSRFLDARRKRRNFNKQATEILNEYFYSHLSNPYPSEEAKEELAKKCGITVSQVSNWFGNKRIRYKKNIGKFQEEANIYAAKTAVTATNVSAHGSQANSPSTPNSAGSSSSFNMSNSGDLFMSVQSLNGDSYQGAQVGANVQSQVDTLRHVISQTGGYSDGLAASQMYSPQGISANGGWQDATTPSSVTSPTEGPGSVHSDTSN [chain 1 I43A, chain 1 I50A], the ratio to parent was about 0.84. The same measure for chain 1 MDEQPRLMHSHAGVGMAGHPGLSQHLQDGAGGTEGEGGRKQDIGDIAQQIMTITDQSLDEAQARKHALNCHRMKPALFNVLCEIKEKTVLSIRGAQEEEPTDPQLMRLDNMLLAEGVAGPEKGGGSAAAAAAAAASGGAGSDNSVEHSDYRAKLSQIRQIYHTELEKYEQACNEFTTHVMNLLREQSRTRPISPKEIERMVSIIHRKFSSIQMQLKQSTCEAVMILRSRFLDARRKRRNFNKQATEILNEYFYSHLSNPYPSEEAKEELAKKCGITVSQVSNWFGNKRIRYKKNIGKFQEEANIYAAKTAVTATNVSAHGSQANSPSTPNSAGSSSSFNMSNSGDLFMSVQSLNGDSYQGAQVGANVQSQVDTLRHVISQTGGYSDGLAASQMYSPQGISANGGWQDATTPSSVTSPTEGPGSVHSDTSN [chain 1 L47A]: about 0.75; for chain 1 MDEQPRLMHSHAGVGMAGHPGLSQHLQDGAGGTEGEGGRKQDIGDILQQIMTITDQSLDEAQARKHALNCHRMKPAAFNVLCEAKEKTVLSIRGAQEEEPTDPQLMRLDNMLLAEGVAGPEKGGGSAAAAAAAAASGGAGSDNSVEHSDYRAKLSQIRQIYHTELEKYEQACNEFTTHVMNLLREQSRTRPISPKEIERMVSIIHRKFSSIQMQLKQSTCEAVMILRSRFLDARRKRRNFNKQATEILNEYFYSHLSNPYPSEEAKEELAKKCGITVSQVSNWFGNKRIRYKKNIGKFQEEANIYAAKTAVTATNVSAHGSQANSPSTPNSAGSSSSFNMSNSGDLFMSVQSLNGDSYQGAQVGANVQSQVDTLRHVISQTGGYSDGLAASQMYSPQGISANGGWQDATTPSSVTSPTEGPGSVHSDTSN [chain 1 L77A, chain 1 I84A]: about 0.46. The same measure for chain 1 MDEQPRLMHSHAGVGMAGHPGLSQHLQDGAGGTEGEGGRKQDIGDILQQIMTITDQSLDEAQARKHALNCHRMKPAAFNALCEIKEKTVLSIRGAQEEEPTDPQLMRLDNMLLAEGVAGPEKGGGSAAAAAAAAASGGAGSDNSVEHSDYRAKLSQIRQIYHTELEKYEQACNEFTTHVMNLLREQSRTRPISPKEIERMVSIIHRKFSSIQMQLKQSTCEAVMILRSRFLDARRKRRNFNKQATEILNEYFYSHLSNPYPSEEAKEELAKKCGITVSQVSNWFGNKRIRYKKNIGKFQEEANIYAAKTAVTATNVSAHGSQANSPSTPNSAGSSSSFNMSNSGDLFMSVQSLNGDSYQGAQVGANVQSQVDTLRHVISQTGGYSDGLAASQMYSPQGISANGGWQDATTPSSVTSPTEGPGSVHSDTSN [chain 1 L77A, chain 1 V80A]: about 0.42; for chain 1 MDEQPRLMHSHAGVGMAGHPGLSQHLQDGAGGTEGEGGRKQDIGDILQQIMTITDQSLDEAQARKHALNCHRMKPALFNVLCEIKEKTVLSIRGAQEEEPTDPQLMRLDNMLLAEGVAGPEKGGGSAAAAAAAAASGGAGSDNSVEHSDYRAKLSQIRQIYHTELEKYEQACNEFTTHVMNLLREQSRTRPISPKEAERMVSIAHRKFSSIQMQLKQSTCEAVMILRSRFLDARRKRRNFNKQATEILNEYFYSHLSNPYPSEEAKEELAKKCGITVSQVSNWFGNKRIRYKKNIGKFQEEANIYAAKTAVTATNVSAHGSQANSPSTPNSAGSSSSFNMSNSGDLFMSVQSLNGDSYQGAQVGANVQSQVDTLRHVISQTGGYSDGLAASQMYSPQGISANGGWQDATTPSSVTSPTEGPGSVHSDTSN [chain 1 I197A, chain 1 I204A]: about 0.64; for chain 1 MDEQPRLMHSHAGVGMAGHPGLSQHLQDGAGGTEGEGGRKQDIGDILQQIMTITDQSLDEAQARKHALNCHRMKPALFNVLCEIKEKTVLSIRGAQEEEPTDPQAMRADNMLLAEGVAGPEKGGGSAAAAAAAAASGGAGSDNSVEHSDYRAKLSQIRQIYHTELEKYEQACNEFTTHVMNLLREQSRTRPISPKEIERMVSIIHRKFSSIQMQLKQSTCEAVMILRSRFLDARRKRRNFNKQATEILNEYFYSHLSNPYPSEEAKEELAKKCGITVSQVSNWFGNKRIRYKKNIGKFQEEANIYAAKTAVTATNVSAHGSQANSPSTPNSAGSSSSFNMSNSGDLFMSVQSLNGDSYQGAQVGANVQSQVDTLRHVISQTGGYSDGLAASQMYSPQGISANGGWQDATTPSSVTSPTEGPGSVHSDTSN [chain 1 L105A, chain 1 L108A]: about 0.62. As for chain 1 MDEQPRLMHSHAGVGMAGHPGLSQHLQDGAGGTEGEGGRKQDIGDILQQIMTITDQSLDEAQARKHALNCHRMKPALFNALCEIKEKTVLSIRGAQEEEPTDPQLMRLDNMLLAEGVAGPEKGGGSAAAAAAAAASGGAGSDNSVEHSDYRAKLSQIRQIYHTELEKYEQACNEFTTHVMNLLREQSRTRPISPKEIERMVSIIHRKFSSIQMQLKQSTCEAVMILRSRFLDARRKRRNFNKQATEILNEYFYSHLSNPYPSEEAKEELAKKCGITVSQVSNWFGNKRIRYKKNIGKFQEEANIYAAKTAVTATNVSAHGSQANSPSTPNSAGSSSSFNMSNSGDLFMSVQSLNGDSYQGAQVGANVQSQVDTLRHVISQTGGYSDGLAASQMYSPQGISANGGWQDATTPSSVTSPTEGPGSVHSDTSN [chain 1 V80A], the figure is about 0.45; as for chain 1 MDEQPRLMHSHAGVGMAGHPGLSQHLQDGAGGTEGEGGRKQDIGDILQQIMTITDQSLDEAQARKHALNCHRMKPALFNAACEIKEKTVLSIRGAQEEEPTDPQLMRLDNMLLAEGVAGPEKGGGSAAAAAAAAASGGAGSDNSVEHSDYRAKLSQIRQIYHTELEKYEQACNEFTTHVMNLLREQSRTRPISPKEIERMVSIIHRKFSSIQMQLKQSTCEAVMILRSRFLDARRKRRNFNKQATEILNEYFYSHLSNPYPSEEAKEELAKKCGITVSQVSNWFGNKRIRYKKNIGKFQEEANIYAAKTAVTATNVSAHGSQANSPSTPNSAGSSSSFNMSNSGDLFMSVQSLNGDSYQGAQVGANVQSQVDTLRHVISQTGGYSDGLAASQMYSPQGISANGGWQDATTPSSVTSPTEGPGSVHSDTSN [chain 1 V80A, chain 1 L81A], about 0.39; as for chain 1 MDEQPRLMHSHAGVGMAGHPGLSQHLQDGAGGTEGEGGRKQDIGDILQQAMTITDQSLDEAQARKHALNCHRMKPALFNVLCEIKEKTVLSIRGAQEEEPTDPQLMRLDNMLLAEGVAGPEKGGGSAAAAAAAAASGGAGSDNSVEHSDYRAKLSQIRQIYHTELEKYEQACNEFTTHVMNLLREQSRTRPISPKEIERMVSIIHRKFSSIQMQLKQSTCEAVMILRSRFLDARRKRRNFNKQATEILNEYFYSHLSNPYPSEEAKEELAKKCGITVSQVSNWFGNKRIRYKKNIGKFQEEANIYAAKTAVTATNVSAHGSQANSPSTPNSAGSSSSFNMSNSGDLFMSVQSLNGDSYQGAQVGANVQSQVDTLRHVISQTGGYSDGLAASQMYSPQGISANGGWQDATTPSSVTSPTEGPGSVHSDTSN [chain 1 I50A], about 0.62. On to chain 1 MDEQPRLMHSHAGVGMAGHPGLSQHLQDGAGGTEGEGGRKQDIGDILQQIMTITDQSLDEAQARKHALNCHRMKPAAFNVLCEIKEKTVLSIRGAQEEEPTDPQLMRLDNMLLAEGVAGPEKGGGSAAAAAAAAASGGAGSDNSVEHSDYRAKLSQIRQIYHTELEKYEQACNEFTTHVMNLLREQSRTRPISPKEIERMVSIIHRKFSSIQMQLKQSTCEAVMILRSRFLDARRKRRNFNKQATEILNEYFYSHLSNPYPSEEAKEELAKKCGITVSQVSNWFGNKRIRYKKNIGKFQEEANIYAAKTAVTATNVSAHGSQANSPSTPNSAGSSSSFNMSNSGDLFMSVQSLNGDSYQGAQVGANVQSQVDTLRHVISQTGGYSDGLAASQMYSPQGISANGGWQDATTPSSVTSPTEGPGSVHSDTSN [chain 1 L77A], for which the ratio to parent was about 0.63. As for chain 1 MDEQPRLMHSHAGVGMAGHPGLSQHLQDGAGGTEGEGGRKQDIGDILQQIMTITDQSLDEAQARKHALNCHRMKPALFNVLCEIKEKTVLSIRGAQEEEPTDPQAMRLDNMLLAEGVAGPEKGGGSAAAAAAAAASGGAGSDNSVEHSDYRAKLSQIRQIYHTELEKYEQACNEFTTHVMNLLREQSRTRPISPKEIERMVSIIHRKFSSIQMQLKQSTCEAVMILRSRFLDARRKRRNFNKQATEILNEYFYSHLSNPYPSEEAKEELAKKCGITVSQVSNWFGNKRIRYKKNIGKFQEEANIYAAKTAVTATNVSAHGSQANSPSTPNSAGSSSSFNMSNSGDLFMSVQSLNGDSYQGAQVGANVQSQVDTLRHVISQTGGYSDGLAASQMYSPQGISANGGWQDATTPSSVTSPTEGPGSVHSDTSN [chain 1 L105A], the figure is about 0.71; as for chain 1 MDEQPRLMHSHAGVGMAGHPGLSQHLQDGAGGTEGEGGRKQDAGDALQQAMTITDQSLDEAQARKHALNCHRMKPALFNVLCEIKEKTVLSIRGAQEEEPTDPQLMRLDNMLLAEGVAGPEKGGGSAAAAAAAAASGGAGSDNSVEHSDYRAKLSQIRQIYHTELEKYEQACNEFTTHVMNLLREQSRTRPISPKEIERMVSIIHRKFSSIQMQLKQSTCEAVMILRSRFLDARRKRRNFNKQATEILNEYFYSHLSNPYPSEEAKEELAKKCGITVSQVSNWFGNKRIRYKKNIGKFQEEANIYAAKTAVTATNVSAHGSQANSPSTPNSAGSSSSFNMSNSGDLFMSVQSLNGDSYQGAQVGANVQSQVDTLRHVISQTGGYSDGLAASQMYSPQGISANGGWQDATTPSSVTSPTEGPGSVHSDTSN [chain 1 I43A, chain 1 I46A, chain 1 I50A], about 0.8.
